{"source": "patent US12390511B2", "about": "“Product and process for mucus viscosity normalization” (ORPRO THERAPEUTICS, INC., priority 2013, dated 2025)", "test": "Compaction assay to assess liquefaction of human CF sputum", "conditions": "0.58 mM in diluent, n=6 per treatment; FIG. 2", "description": "Compaction assay to assess liquefaction of human CF sputum. For all manipulations, CF sputum was handled under a microbiologic hood. rhTrx, r(Cys)hTrx or diluent alone (25 microliters), in relevant concentrations, was added to CF sputum (275 microliters) in a 1.5 ml Eppendorf conical tube and mixed by very brief vortexing. After incubation at 37 degrees C. for 30 min, samples were again briefly mixed and loaded into hematocrit tubes and sealed at both ends. After a 5 minute centrifugation in a hematocrit centrifuge, the percent solids (gel) and percent liquid was determined by direct linear measurement and expressed as percent liquid as follows: 100×liquid/(liquid+solids). For each condition, sputum from at least five different CF patients was measured in triplicate.\nComparison of efficacy with standard of care mucolytic agent (rhDNase). For these studies, relevant concentrations of rhTrx, r(Cys)hTrx and rhDNase were compared by incubation as described above. After 30 minutes, samples were assessed for changes in liquefaction of sputum (compaction assay) and alteration of viscoelasticity. In addition, synergy studies were performed. […] For each condition, sputum from at least five different CF patients were measured in triplicate. […]\nHuman CF sputum collection. Sputum was obtained from adult and pediatric patients with CF as determined by a health care provider. […]", "data": [{"molecule": "rhDNase: standard of care CF mucolytic Pulmozyme (rhDNase I; dornase alfa) (protein, UniProt P24855 23-282, looked up) Deoxyribonuclease-1: LKIAAFNIQTFGETKMSNATLVSYIVQILSRYDIALVQEVRDSHLTAVGKLLDNLNQDAPDTYHYVVSEPLGRNSYKERYLFVYRPDQVSAVDSYYYDDGCEPCGNDTFNREPAIVRFFSRFTEVREFAIVPLHAAPGDAVAEIDALYDVYLDVQEKWGLEDVMLMGDFNAGCSYVRPSQWSSIRLWTSPTFQWLIPDSADTTATPTHCAYDRIVVAGMLLRGAVVPDSALPFNFQAAYGLSDQLAQAISDHYPVEVMLK", "values": [{"measurement": "liquefaction of patient sputum / mucus-normalizing potency at equimolar concentrations", "value": "more potent than equimolar amounts of NAC"}]}]}
